Measured values reported in article PMC5402868.

What was measured:
[1] = biological target: α-synuclein-YFP fusion protein (recombinant) (UniProt P37840); experiment: FRET or BRET
[2] = biological target: α-synuclein-YFP transgene product in C. elegans (UniProt P37840); experiment: FRET or BRET

mean YFP fluorescence lifetime in cells, day 4 [1] | mean YFP fluorescence lifetime, day 4 (oligomeric species) [1] | decrease of mean YFP fluorescence lifetime during ageing [2] | Substance
1480 ps | 2960 ps | – | α-synuclein-YFP fusion protein (recombinant) (from UniProt P37840 1-140) (natural protein)
– | – | 130 ps | α-synuclein-YFP transgene product in C. elegans (from UniProt P37840 1-140) (natural protein)
